Experimental data published in EP1169642B1 (THE GOVERNMENT OF THE UNITED STATES OF AMERICA, as …, dated 2006).

Target: T1, purified human complement Factor H (human, UniProt P08603 19-1231)
T1 construct: also called fH
Assay: steady state tryptophan fluorescence titration of Factor H with BSP

T1 sequence (P08603 19-1231 limits assumed): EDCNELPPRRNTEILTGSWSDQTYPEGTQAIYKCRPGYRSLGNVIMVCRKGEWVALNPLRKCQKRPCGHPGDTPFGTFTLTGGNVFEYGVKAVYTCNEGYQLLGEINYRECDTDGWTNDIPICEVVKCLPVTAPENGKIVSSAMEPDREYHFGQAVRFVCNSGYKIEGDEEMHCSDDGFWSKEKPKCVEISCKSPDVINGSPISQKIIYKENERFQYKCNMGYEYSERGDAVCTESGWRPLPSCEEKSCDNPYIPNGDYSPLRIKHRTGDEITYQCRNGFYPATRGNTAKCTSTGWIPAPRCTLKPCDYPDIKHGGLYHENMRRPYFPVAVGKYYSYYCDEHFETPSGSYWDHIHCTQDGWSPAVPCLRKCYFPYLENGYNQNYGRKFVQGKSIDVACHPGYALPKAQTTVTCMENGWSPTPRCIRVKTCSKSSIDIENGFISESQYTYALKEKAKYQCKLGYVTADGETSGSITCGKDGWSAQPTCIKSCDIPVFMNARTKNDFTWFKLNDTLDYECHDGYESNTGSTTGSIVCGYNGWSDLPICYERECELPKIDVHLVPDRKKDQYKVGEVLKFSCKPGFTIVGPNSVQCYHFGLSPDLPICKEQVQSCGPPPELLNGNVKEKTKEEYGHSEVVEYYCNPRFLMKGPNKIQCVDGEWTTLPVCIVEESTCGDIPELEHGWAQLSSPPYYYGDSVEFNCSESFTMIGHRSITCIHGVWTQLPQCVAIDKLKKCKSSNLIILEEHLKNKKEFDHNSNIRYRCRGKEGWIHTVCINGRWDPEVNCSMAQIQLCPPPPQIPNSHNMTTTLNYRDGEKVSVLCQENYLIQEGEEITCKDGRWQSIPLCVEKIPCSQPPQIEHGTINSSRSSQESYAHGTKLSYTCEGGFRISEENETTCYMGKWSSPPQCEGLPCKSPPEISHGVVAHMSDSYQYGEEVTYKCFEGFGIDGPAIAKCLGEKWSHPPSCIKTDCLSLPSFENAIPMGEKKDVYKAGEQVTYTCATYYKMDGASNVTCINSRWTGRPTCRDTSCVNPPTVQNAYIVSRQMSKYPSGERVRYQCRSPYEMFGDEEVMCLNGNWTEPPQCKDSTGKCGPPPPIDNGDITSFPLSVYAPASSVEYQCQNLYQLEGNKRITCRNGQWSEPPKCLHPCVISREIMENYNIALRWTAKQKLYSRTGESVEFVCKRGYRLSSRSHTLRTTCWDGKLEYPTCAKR

B1: human bone sialoprotein (BSP) (ligand)
chain: FSMKNLHRRVKIEDSEENGVFKYRPRYYLYKHAYFYPHLKRFPVQGSSDSSEENGDDSSEEEEEEEETSNEGENNEESNEDEDSEAENTTLSATTLGYGEDATPGTGYTGLAAIQLPKKAGDITNKATKEKESDEEEEEEEEGNENEESEAEVDENEQGINGTSTNSTEAENGNGSSGGDNGEEGEEESVTGANAEGTTETGGQGKGTSKTTTSPNGGFEPTTPPQVYRTTSPPFGKTTTVEYEGEYEYTGVNEYDNGYEIYESENGEPRGDNYRAYEDEYSYFKGQGYDGYDGQNYYHHQ
modifications: glycosylated, phosphorylated and tyrosine-sulfated glycoprotein (sites not given)
notes: Natural BSP of human serum is entered under the same molecule; also called rBSP; recombinant BSP
With B1 the Kd was ≤ 1 nM and the “stoichiometry (BSP:Factor H)” value was 1 molar ratio.
